# Results as given in the nanobody polyreactivity screen of Harvey et al. (2022).
# Test: yeast display, Sf9 membrane polyspecificity reagent, FACS + sequencing; frameworks hold sequencing errors
# Method in brief: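 In a synthetic yeast display library (Saccharomyces cerevisiae BJ5465), nanobody expression was induced with galactose for 36–48 hours. FACS gates were set low and high (top ~1%) using anti-HA fluorescence for expression and streptavidin fluorescence for binding of the Sf9 membrane reagent. Each polyreactivity label is drawn from the gate of origin.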
row,Sequence,polyreactivity (PSR sort gate)
1,QVQIVESGGGLVQAGRSLRLSCAASGRTFYRNAMGWYRQAPGKERELVAAITWRTGNTYFADSVKGRFTISRDNAKNTVYLQMNSLKQEDTAVYYCNRVPYYGHPFRVSGDYWGQCTQVTVSS,low polyreactivity
2,QVQLVESGGGLVQAGGSLRLSCAASGRTFPYNAMGWYRQAPGKERELVAAITSSGGSTYYADSVKGRFTISRDNAKNTVYLQMNSLKPEDTAVYYCAKGYYSPNYYYWGQGTQVTVSS,high polyreactivity
3,QVHLVESGGGLVQAGGSLRLSCAASGGLFTSYDMGWYRQEPGKEREFVAGISDSGGSTYYADSVKGRFTISRDNAKNTVYLQMNSLKPEVTAVYYCAVESYRRYYYWGQGTQVTVSS,high polyreactivity
4,QDQLVESGGGIVQAGGSLRLSCAASGSTFTWYAMGWYLQDPGKEREFVAAITRSGDSTYYADSVKGRFTISRDNAKNTVYLEMNSLKPEDTAVYYCAASNDYLRGWFDYWGQGTQVTVSS,low polyreactivity
5,QVQLVESGGGLVQAGGSLRLSCAASGSIFPYAMGWYRQAPGKERELVAVISWSGASTYYADSVKGRFTISRDNAKNTVYLQMNSLKPEDTAVYYCAVYRYYKLVHLYGYDYWGQGTQVTVSS,high polyreactivity
6,QVQLVESGGGLVQAGGSLRLSCAASVLTFITNVMVWYRQAPGKERELVAVISSRGGTTYYADSVKGRFTISRDNAKNTVYLQMNSLKPEETAVYYCNRVRSPKYDWGQGTQVTVSS,high polyreactivity
7,QVQLVESGGGLVQAGGSLRLSCAASASIFPRNTMGWYRPAPGKERELVAAISRSGGSTYYADSVKGRFTISRDNAKNTVYLQMNSLKPEDTAVYYCAVSGGTSRRYYYWGQGTQVTVSS,high polyreactivity
8,PVQLVESGVCLVQAGGSLRLSCATPGSTIDFYAMGWYRQAPGKERELVARISSGGGRTYYADSVKGRFTISRDNAKNTVYLQMISLKPEDTAVYYCAAAYWYLDYYWGQGTQVTVSS,low polyreactivity
9,QVQLVESGGGLVQAGGSLRLSCAASGLIFSAYAMGWYRQAPGKERELVAGISRRGSTYYADSVKGRFTISRDNAKNTVYLEMNCLKPEDTAVYYFAAFFRVRFRASGYDYWGQGTQVTVSS,high polyreactivity
10,QVQLVESGGGLVQAGGSLRLSCAASGFTFWYNDMGWYRQAPGKEREFVAAITTSGGNTYYADSVKGRFTISRDNAKNTVYLNMNSLIPEDTAVYYCAAEEGSSDATGYDYWGQGTQVTVSS,low polyreactivity
11,QVQHVESGGGLVQAGGSLRLSCAASGSIISSYAMGRYRQAPGKERELVASISRRGGSTYYADSVKGRFTISRDNAKNTVSLQMNSLKPEDTAVYYCYPSCGPYRYYYCGQGTQVTVSS,low polyreactivity
12,QVQLVESGGGLVQAGGSLRLSCAASGRTSFGYAMGWYRQAPGKERELVAVISIGGTTYYADSVKGRFTISRDNAKNTVYLQMNSLKPEDTAVYYCAATPSNATGFLSYDYWGQGTQVTVSS,low polyreactivity
13,QVQLVESGGGLVQAGGSLRLSCAASGSNFDFYAMGWYRQAPGKERELVAAISSSGTSTYYADSVKGRFTISRDNAKNTVYLQMNSLKPEDTAVYYCAAVYSRSGYTWREYGYWGQGTQVTVSS,low polyreactivity
14,QVQLVESGGGLAQAGGSLRLSCAASGSTFYSYAMGWYRQAPGKERELVAGITWNDGSTYYADSVKGRFTISRDNAKNTVYLQMNSLKPEDTAVYYCNTDASPYLFDYWGHGTQVTVSS,low polyreactivity
15,QVQLVESGGGLVQAAGSLRLSCAASGITFGLYTMGWYRQAPGKERELVAAISWSGGGTYYADSVKGRFTISRDNAKNTVYLQMNSLKPEDTAVYYCAAPVRGSYPYSVGVDYWGQGTQVTVSS,high polyreactivity
16,QVQLVESGGGLVQAGGSLRLSCAASGRIFYDNAMGWYSQAPGKERELVAAIRIGGSTNYADSVKGRFTISRDNAKNTVYLLMNSLKPEDTAVYYCNRSDNPDSYYPDSVWGDSWGQGTQVTVSS,low polyreactivity
17,QVQLVESGGGLVQAGGSLRLSCAASGSIFLAYDMGWYRQAPGKERELVAGITSGGTTYYADSVKGRFTISRDNAKNTVYLQMNSLKPEDTAVYYCAVEPVFIVSEVLFDYWGQGTQVTVSS,low polyreactivity
18,QVQLVESGGGLVQAGGSLRLSCAASGYIFNKYVMGWYRQAPGKERELVAAISASGGSTYYADSVKGRFTISRDNAKNTVYLQMNSLKPEDTAVYYCAATLYRRMDYWGQGTQVTVSS,high polyreactivity
19,QVQLVESGRGLVQAGGSLRLSCAASGITFRYYAMGWYRPAPGKERELVAAITRGGRTNYADSVKGRFTISRDNAKNTVYLQMNSLKPEDTAVYYCATGRDSNFGNSYYYWGQGTQVTVSS,high polyreactivity
20,KVQLVESGGGLVQAGGSLRLSCAASGNTFYHYAMGWYRQAPGKERELVAGIRYNGGSTYYADSVKGRFTISRDNAKNTVYLHMKSLKPEDTAVYYCATKGYTGYAYRYGYWGQGTQVTVSS,high polyreactivity
21,QVQLVESGGGLVQAGGSLRLSCAASGSTIPWYAMGWYRQAPGKEREFVAAISWSSGRTYYADSVKGRFTISRDNAKNTVYLQMNSLKPEDTAVYYCAARQWAYYRDVEMGYWGQGTQVTVSS,high polyreactivity
22,QVQLEESGRGLVQAGGSLRISCAASGRIFWGYAMGWYRQAPRKERELVARITSGGDTYYADSVKGRFTISRDNAKNTVYLQMNSLKPEDTAVYYCAAELRPGYRSSYGLIYDYWGQGTQVTVSS,low polyreactivity

row,Sequence,polyreactivity (PSR sort gate)
1,QVQIEESGGGLVQAGGSLRLSCAASGSTFGINAMGWSRQAPGKERELVAAISSRGGSTYYADSVKGRFTISRDNAQNTVYLQMNSLKPADTALYSCNRRGWSRTHQYDYWGQGTQVTVSS,high polyreactivity
2,QVQLVESGGGLVQAGGSLRLSCDASGFIFRYYDMGWYRQAPGKERELVAAISWRGGRTYYADSVKGRFTISRDNAKNTVYLQMNSLKPEVTAVYYCAAGFSLWTYPKPYGEDSWGQGTQVTVSS,high polyreactivity
3,QVQHVESGARLVQAGGSLRLSCAASGHIFFDYTMGWSRQAPGKERELVAGITIGGSTNYADSVKGRFTISRDNAKNTVYLQMNSLKPEDTAVYYCNVVKYVYIYSYWEYYYWGQGTQVTVSS,low polyreactivity
4,QVQLVESGGGLVQAGGSLRLSCAASGIIFKLYAMGWYRQAPGKERELVAAITYRGGTTYYADSVKGRFTISRDNAKNTVYLQMNSLKPEDTAVYYCAADNTFRDDYFLYYLFNYNYWGQGTQVTVSS,low polyreactivity
5,QVQLVESGGGLVQAGGSLRISCAASGRIYNRNAMGWYRQAPGKERELVAAIRSDGTTNYADSVKGRFTISRDNAKNTVYLQMISLKPEDTAVYYCNAEEGYHWWIIPEEDDYWGQGTQVTVSS,low polyreactivity
6,QVQLVESGGGLVQAGGSLRLSCAASGSIFYFNAMGWYRQAPGKERELVARISGSSGRTYYADSVKGRFTISRDNAKNTVYLQMNSLKPEDTAVYYCAARYYTSATMDYWGQGTQVTVSS,high polyreactivity
7,QVQLVESGGGLVQAGGSLRLSCAASGFTFYVYAMGWYRQAPGKERELVAAISRSGGSTYYADSVKGRFTISRDNAKNTVYLQMNSLKPEDTAVYYFAVVQRYWSPGIVPYVYWGQGTQVTVSS,high polyreactivity
8,QVQLVESGVGLVQAGGSLRLSCAASGSIFQKYTMGWYRQAPGKERQLVAAITRSGGSTYYADSVKGRFTISRDNAKNTVYLQMNSLKAEDSAVYYCNKRYIPWAYDYWGQGTQVTVSS,high polyreactivity
9,QVQIVESGGGLVQAGRSLRLSCAASGFIFFPYVMGWYRPAPVKERELVARITSGGGSTYYADSVKGRFSISRDNAKNTVYLEMYSLKPEDTAVYYCAARFRFPPSYDYWGQCTQVTVSS,high polyreactivity
10,QVQLVETGGGLVQAGGSLRLSCAASGFTFPYNAMGWYRQAPGKERELVAAISSTGGITYYADSVKGRFTISRDNAKNTVYLQMNSLKPEDTAVYYCGWYDYWGQGTQVTVSS,low polyreactivity
11,QVQLVESGGGLVQAGGSLRLSCAASGRIFGYYAMGWYRQAPGKERELVATINSVGSTNYADSVKGRFTISRDNAKNTVYLQMNSLKPEDTAVYYCATDSAYTFFTYRLWRHGYWGQGTQVTVSS,low polyreactivity
12,QVQLVESGGGLVQAGGSLRLSCAASGLTFFYYAMGWYRQAPGKERELVASISSSGITNYADSVKGRFTISRDNAKNTVYLQMNSLKPEDTAVYYCASQYYISPLRYYSPTGGYWGQGTQVTVSS,high polyreactivity
13,QVQLVESGGGLVQAGGSLRLICAASGGPFGYYTMGWYRQAPGKERELVAAISSGGGTDYADSVKGRFTISRDNAKNTVYLQMNSLKPEDTAVYYCNAKWLEWHYVFLPSYTMDYWGQGTQVTVSS,low polyreactivity
14,QVQLVESGGGLVQAGGSLRLSCAASGFTFVYNAMGWYRPAPGKERELVAAITSGGNTYYADSVKGRFTISRDNAKNTVYLQMNSLKPEDTAVYYCAKRGYGRYYAYDYWGQGTQVTVSS,high polyreactivity
15,QVQLVESGGGLVQAGGSLRLSCAASGFIFYYYAMGWYRQAPGKEREFVAGISRSGGSTYYADSVKGRFTISRDHAKNTVNLLQNSLKTEDTAVYYCNARPLYHFWYYSGEEYGYWGQGTQVTVSS,high polyreactivity
16,QVQLEESGGGVVQAGGSLSLSCAASVSTFIFNTMGWYRQATGKERELVASITGDGRTNYADSVKGRFTISRDNAKNTVYLQMNSLKPEDTAVYDCAADGYDQYPLWAPPGDYWGQGTQVTVSS,low polyreactivity
17,QVQLVESAGGLVQAGGSLRLSCASSGFTFKANAMGWYRQAPGKERELVAAISRRGSSTYYADSVKGRFTISRDNAKNTVYLQMNSLKPEDTAVYYCNTKPRAGRTKLGYWGQGTQVTVSS,high polyreactivity
18,QVQLVESGGGLVQAGGSLRLSCAASGRTFVSYAMGWYRQAPGKERELVAAINGNGASTRYADSVKGRFTISRDNAKNTVYLQMNSLKPEDTAVYYCNTGRRFYGYNYWGQGTQVTVSS,high polyreactivity
19,QVQLVESGGGLVQAGGSLRLSCAASGSIFTWNGMGWYRQAPGKERELVAAISNGASTNYAESVKGRFTISRDNAKNTVYLQMNSLKPEDTAVYYCAAKSTGRYDYWGQGTQVTVSS,low polyreactivity
20,QVQLVESGGGLVQAGGSLRLSCAASGSIFVLNAMGWYTQAPGKERELVAAINKSGGRTYYADSVKGRFTISRDNAKNTVYLQMNSLKPEDTAVDYCAVDISVTGSSNRYGYWGQGTQVTVSS,high polyreactivity
21,QVQLVESGGGLVQAGGSLRLSCAASGRTFDGNVMGWYRQAPGKERELVAAITASGGRTYYADSVKGRFTISRDNAKNTVYLQMNSLKPEDTAVYFCAADPTYLRTLRFGSYDYWGQGTQVTVSS,high polyreactivity
